Measurements taken from patent publication US20240392008A1.

Target: CD25 (IL-2Rα) (UniProt P01589)
Experiment: cell-based or functional assay

Chain of UniProt P01589 (P01589 22-272 limits assumed): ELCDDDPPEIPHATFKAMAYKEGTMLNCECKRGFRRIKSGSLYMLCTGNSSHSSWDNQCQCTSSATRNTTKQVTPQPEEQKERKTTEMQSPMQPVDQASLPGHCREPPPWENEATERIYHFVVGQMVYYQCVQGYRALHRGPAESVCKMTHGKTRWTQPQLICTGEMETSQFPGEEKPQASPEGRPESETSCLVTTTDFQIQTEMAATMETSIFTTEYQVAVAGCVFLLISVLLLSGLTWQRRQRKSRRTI

B1: IC-T6-IC-IL2v (IL2v immunoconjugate) (protein, part only; not given: isotype control Fab and Fc chains, not shown: a dimerising Fc or GST)
chain, part: APASSSTKKTQLQLEHLLLDLQMILNGINNYKNPKLTRMLTAKFAMPKKATELKHLQCLEEELKPLEEVLNGAQSKNFHLRPRDLISNINVIVLELKGSETTFMCEYADETATIVEFLNRWITFAQSIISTLT
For B1, the percent of pSTAT5+ cells among Treg (flow cytometry on PBMC, 20 min) was 3 log.
